Test results taken from US11091559B2, “Anti-ALK antibodies and methods for use thereof” (Celldex Therapeutics, Inc., priority 2015, dated 2021).

Columns and labels:
[1] = tested on: ALK on the surface of NB1 cells; assay: KD determination by flow cytometry on NB1 cells; type: binding; details: NB1 (human) cells, FACS, mean
Procedure: FIG. 3 depicts the apparent affinities (KD) of ALK antibodies for ALK expression on the surface of NB1 cells. KD was determined by flow cytometry. Titration of each antibody on NB1 cells for 2-4 hours at 4° C. was followed by incubation with a fluorescently-labeled secondary antibody. The normalized mean fluorescent intensity […] shown as “% Max binding” was plotted as a function of antibody concentration.
Flow cytometry was utilized to measure the affinity at steady state (KD) with which different ALK antibodies bind to ALK on the surface of NB1 cells (FIG. 3). Titration of each antibody on NB1 cells for 2-4 hours at 4° C. was followed by incubation with a fluorescently-labeled secondary antibody. The normalized mean fluorescent intensity (MFI) shown as “% Max binding” was plotted as a function of antibody concentration. The data were fit to a one site binding isotherm using GraphPad Prism, from which affinity values were derived.
(§1) Amino acid residues that differ between rat ALK and mouse ALK are boxed. KD values for both NB1 (human) cells and Neuro2a (mouse) cells were also determined.

[2] = target: human ALK (hALK, purified ALK protein) (Homo sapiens, UniProt Q9UM73); assay: Monovalent affinity of humanized antibodies, BLitz System, human ALK; type: binding; details: for Kd: BLitz, purified ALK protein at 70 μg/mL, single binding site fit, antibody by plate position of Table 19; for potency estimated from few doses: single dose kinetics
human ALK (hALK, purified ALK protein), sequence (Q9UM73 with tags, fused parts or gaps): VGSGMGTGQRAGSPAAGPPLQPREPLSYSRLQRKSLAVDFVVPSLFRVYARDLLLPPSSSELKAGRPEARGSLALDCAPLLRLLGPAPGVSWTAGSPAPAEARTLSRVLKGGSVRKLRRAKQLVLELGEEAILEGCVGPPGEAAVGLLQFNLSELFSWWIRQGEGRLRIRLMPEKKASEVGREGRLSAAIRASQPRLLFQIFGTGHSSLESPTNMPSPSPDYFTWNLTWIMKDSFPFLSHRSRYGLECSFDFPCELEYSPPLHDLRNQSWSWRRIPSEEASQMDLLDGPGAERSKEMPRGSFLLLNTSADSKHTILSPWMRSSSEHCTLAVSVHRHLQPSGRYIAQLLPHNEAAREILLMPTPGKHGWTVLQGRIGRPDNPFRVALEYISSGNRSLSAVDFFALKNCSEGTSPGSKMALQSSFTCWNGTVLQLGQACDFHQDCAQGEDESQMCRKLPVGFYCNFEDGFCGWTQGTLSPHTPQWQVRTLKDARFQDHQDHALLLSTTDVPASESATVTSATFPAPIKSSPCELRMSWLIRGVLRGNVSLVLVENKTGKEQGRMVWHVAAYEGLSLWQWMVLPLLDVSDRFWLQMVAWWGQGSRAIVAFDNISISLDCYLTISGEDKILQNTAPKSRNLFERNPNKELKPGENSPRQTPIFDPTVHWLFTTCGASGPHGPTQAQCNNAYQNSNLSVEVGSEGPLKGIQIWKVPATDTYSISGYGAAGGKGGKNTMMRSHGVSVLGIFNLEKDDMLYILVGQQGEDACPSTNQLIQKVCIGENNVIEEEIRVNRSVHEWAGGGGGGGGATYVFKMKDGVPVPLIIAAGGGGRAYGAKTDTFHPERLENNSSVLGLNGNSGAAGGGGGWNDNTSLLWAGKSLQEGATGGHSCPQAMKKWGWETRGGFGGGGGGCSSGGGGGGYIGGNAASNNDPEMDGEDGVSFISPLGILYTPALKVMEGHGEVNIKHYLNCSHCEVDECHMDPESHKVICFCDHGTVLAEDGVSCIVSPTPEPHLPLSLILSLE
Procedure: The humanized ALK antibodies designed in Example 1 were tested for monovalent affinity, wherein the kinetic data are fit to a single binding site equation to obtain relative affinity values.
(§2) Kinetic measurements of the monovalent affinity of the 96 humanized ALK antibody variants (Ab351-Ab446) were collected. Affinity ranking was performed using a BLitz® System (ForteBio, Menlo Park, Calif.). Humanized anti-ALK antibodies were immobilized at 0.5 mg/mL using Protein A tips. Once baseline stability was ensured, purified ALK proteins at 70 μg/mL were added. The resulting kinetic data were fit to a single binding site equation, from which the quoted monovalent KD values were derived.
as §1

[3] = target: T1, cell surface mALK on Neuro2a cells (Mus musculus, UniProt P97793); assay: KD of humanized antibodies on Neuro2a (mouse) cells; type: binding; details: FACS, mean
T1 construct: Neuro-2a cells that express low levels of endogenous murine ALK; endogenous in cells; host or cells: Neuro-2a (Neuro2a) mouse neuroblastoma cells
T1 sequence (P97793 19-1621): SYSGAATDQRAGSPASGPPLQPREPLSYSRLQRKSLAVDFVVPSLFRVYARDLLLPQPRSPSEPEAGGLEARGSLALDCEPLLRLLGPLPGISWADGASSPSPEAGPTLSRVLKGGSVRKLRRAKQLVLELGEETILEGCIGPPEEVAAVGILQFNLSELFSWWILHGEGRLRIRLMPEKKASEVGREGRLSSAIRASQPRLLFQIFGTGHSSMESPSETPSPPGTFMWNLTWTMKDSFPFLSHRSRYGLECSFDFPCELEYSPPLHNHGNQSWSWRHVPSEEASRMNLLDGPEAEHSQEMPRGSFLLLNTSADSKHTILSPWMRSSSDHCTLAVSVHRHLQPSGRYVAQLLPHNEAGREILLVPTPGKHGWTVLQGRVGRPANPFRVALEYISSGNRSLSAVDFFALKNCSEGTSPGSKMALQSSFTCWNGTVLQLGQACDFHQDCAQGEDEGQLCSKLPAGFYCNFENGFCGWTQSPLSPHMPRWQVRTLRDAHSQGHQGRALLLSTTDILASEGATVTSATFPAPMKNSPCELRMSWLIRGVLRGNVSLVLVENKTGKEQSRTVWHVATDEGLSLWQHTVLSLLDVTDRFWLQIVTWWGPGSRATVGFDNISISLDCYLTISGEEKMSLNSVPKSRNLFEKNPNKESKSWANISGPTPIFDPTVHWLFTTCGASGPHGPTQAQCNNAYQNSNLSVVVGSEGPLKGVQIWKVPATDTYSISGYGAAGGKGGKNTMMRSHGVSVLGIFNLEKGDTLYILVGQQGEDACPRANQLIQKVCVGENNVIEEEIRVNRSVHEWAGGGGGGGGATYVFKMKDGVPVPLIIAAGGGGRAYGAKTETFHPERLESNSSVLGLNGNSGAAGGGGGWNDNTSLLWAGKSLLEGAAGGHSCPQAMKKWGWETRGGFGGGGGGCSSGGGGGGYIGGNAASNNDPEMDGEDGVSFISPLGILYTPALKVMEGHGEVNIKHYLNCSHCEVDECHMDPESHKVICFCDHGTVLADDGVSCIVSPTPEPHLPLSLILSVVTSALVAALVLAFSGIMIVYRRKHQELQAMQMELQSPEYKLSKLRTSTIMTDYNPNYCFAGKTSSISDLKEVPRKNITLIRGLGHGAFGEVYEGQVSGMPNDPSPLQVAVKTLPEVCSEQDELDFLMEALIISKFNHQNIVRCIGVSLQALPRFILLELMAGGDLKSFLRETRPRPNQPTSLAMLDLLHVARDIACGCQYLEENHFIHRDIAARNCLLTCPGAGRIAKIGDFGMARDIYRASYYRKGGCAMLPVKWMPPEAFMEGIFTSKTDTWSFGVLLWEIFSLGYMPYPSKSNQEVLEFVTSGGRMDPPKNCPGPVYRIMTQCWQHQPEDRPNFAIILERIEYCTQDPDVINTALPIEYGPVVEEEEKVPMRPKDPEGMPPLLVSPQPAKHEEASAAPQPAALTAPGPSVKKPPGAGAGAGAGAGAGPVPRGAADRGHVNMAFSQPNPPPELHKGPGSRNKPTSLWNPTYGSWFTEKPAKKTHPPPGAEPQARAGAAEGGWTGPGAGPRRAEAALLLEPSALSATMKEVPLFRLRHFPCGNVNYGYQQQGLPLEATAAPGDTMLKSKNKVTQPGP
Procedure: as §1

[4] = target: T2, mouse ALK (mALK) (Mus musculus, UniProt P97793); assay: Monovalent affinity of humanized antibodies, BLitz System, mouse ALK; type: binding; details: single dose kinetics
T2 construct: mouse ALK (mALK)
Procedure: as §2, §1

[5] = target: murine ALK (purified mouse ALK antigen) (Mus musculus, UniProt P97793); assay: Mouse ALK cross-reactivity, solid-state ELISA; type: binding; design: key: − none; + weak; ++ moderate; +++ strong; details: cross-reactivity with murine ALK
Procedure: Purified mAbs were evaluated for their ability to bind murine ALK by solid-state ELISA, or flow cytometry on Neuro-2a cells that express low levels of endogenous murine ALK. […]

[6] = target: C-terminal region of human ALK ECD (T637-S1038) (Homo sapiens, UniProt Q9UM73); assay: Competitive binding assay (epitope binning) by flow cytometry; details: antibodies to the C-terminal region
C-terminal region of human ALK ECD (T637-S1038), sequence (Q9UM73 19-1620): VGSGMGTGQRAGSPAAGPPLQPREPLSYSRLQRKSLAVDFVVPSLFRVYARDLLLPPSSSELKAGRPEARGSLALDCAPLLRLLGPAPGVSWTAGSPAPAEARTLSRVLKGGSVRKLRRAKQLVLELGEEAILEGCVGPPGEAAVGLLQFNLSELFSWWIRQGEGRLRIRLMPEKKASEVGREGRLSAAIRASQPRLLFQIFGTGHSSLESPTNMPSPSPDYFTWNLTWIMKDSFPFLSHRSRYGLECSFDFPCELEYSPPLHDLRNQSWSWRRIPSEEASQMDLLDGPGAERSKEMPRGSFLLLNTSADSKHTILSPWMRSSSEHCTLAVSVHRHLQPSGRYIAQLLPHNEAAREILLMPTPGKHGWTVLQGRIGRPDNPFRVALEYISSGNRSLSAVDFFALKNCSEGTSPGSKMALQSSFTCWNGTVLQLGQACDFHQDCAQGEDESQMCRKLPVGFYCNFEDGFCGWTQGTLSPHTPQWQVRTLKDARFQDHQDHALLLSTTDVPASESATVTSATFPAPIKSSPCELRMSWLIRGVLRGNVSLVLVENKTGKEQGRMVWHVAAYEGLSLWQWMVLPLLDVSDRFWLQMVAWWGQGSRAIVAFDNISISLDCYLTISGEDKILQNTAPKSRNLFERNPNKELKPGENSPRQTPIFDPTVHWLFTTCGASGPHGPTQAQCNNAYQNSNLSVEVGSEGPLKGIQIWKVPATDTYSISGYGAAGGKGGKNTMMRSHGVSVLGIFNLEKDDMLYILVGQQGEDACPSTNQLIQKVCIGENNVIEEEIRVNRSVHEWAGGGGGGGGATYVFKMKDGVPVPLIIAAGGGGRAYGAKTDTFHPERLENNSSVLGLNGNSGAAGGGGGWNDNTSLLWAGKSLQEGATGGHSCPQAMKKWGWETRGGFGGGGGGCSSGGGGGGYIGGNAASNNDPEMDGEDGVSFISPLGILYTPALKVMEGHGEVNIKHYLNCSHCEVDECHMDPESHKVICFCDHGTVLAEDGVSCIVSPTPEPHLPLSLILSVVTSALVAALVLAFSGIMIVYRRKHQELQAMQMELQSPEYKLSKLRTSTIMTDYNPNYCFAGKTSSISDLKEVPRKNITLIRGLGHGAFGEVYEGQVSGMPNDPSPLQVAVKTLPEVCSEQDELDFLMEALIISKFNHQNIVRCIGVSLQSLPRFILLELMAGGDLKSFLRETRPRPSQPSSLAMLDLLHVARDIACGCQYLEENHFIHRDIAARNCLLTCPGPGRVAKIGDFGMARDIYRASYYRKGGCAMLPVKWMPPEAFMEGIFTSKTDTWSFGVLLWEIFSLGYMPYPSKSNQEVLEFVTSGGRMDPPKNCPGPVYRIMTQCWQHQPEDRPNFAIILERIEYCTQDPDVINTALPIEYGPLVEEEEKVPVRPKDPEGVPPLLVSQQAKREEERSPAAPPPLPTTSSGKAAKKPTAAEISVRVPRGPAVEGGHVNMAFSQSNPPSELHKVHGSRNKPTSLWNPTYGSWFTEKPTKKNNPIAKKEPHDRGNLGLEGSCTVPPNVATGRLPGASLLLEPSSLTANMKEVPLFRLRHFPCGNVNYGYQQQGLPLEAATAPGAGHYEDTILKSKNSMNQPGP
Procedure: Antibodies that bind to the C-terminal region of human ALK ECD (T637-S1038) were further characterized using a competitive binding assay. A pairwise matrix approach was used whereby each antibody was fluorescently labeled and tested for its ability to bind to ALK-expressing cells pre-incubated with an unlabeled antibody. The ability of both antibodies to bind the C-terminal domain simultaneously was tested via flow cytometry. If both antibodies bound simultaneously, they were put into different bins and considered to belong to a separate epitope class.

[7] = tested on: ALK (basal phosphorylation in NB1 cells); assay: Western blot of ALK phosphorylation in NB1 cells; type: cell-based, human; details: for ALK phosphorylation: effect in words
Procedure: Lysed cells were subjected to SDS-PAGE, transferred to nitrocellulose and immunoblotted with antibodies against total, and phospho-specific ALK, AKT, and MAPK. FIG. 4B depicts an ELISA of NB1 cells grown in media with reduced serum and treated with 30-100 nM of each antibody for 1-2 hours. Cell lysates were incubated on ELISA plates with an anti-ALK antibody, followed by incubation with a pan phosphotyrosine antibody coupled to HRP.
Cell lysates were subjected to SDS-PAGE and transferred to nitrocellulose. Immunoblotting was performed with antibodies against total, and phospho-specific ALK, AKT, and MAPK (purchased from Cell Signaling and utilized per manufacturer's instructions). HRP (horse radish peroxidase)-conjugated secondary antibodies (Thermo Scientific, Waltham, Mass.) were used along with Supersignal West Pico Chemiluminescent Substrate (Thermo Scientific, Waltham, Mass.) to image blots.
Anti-ALK monoclonal antibodies generated in Example 1 were evaluated via Western blotting for their ability to activate or inhibit basal levels of ALK phosphorylation in NB1 cells (FIG. 4A). A subset of ALK antibodies stimulated ALK tyrosine phosphorylation and a different subset of antibodies inhibited basal levels of ALK phosphorylation. See also Table 18, below. […] That is, ALK antibodies that stimulated ALK tyrosine phosphorylation increased MAPK and AKT phosphorylation, whereas ALK antibodies that inhibited ALK tyrosine phosphorylation decreased basal levels of MAPK and AKT phosphorylation (FIG. 4A). Similar results were obtained in ELISA-based ALK phosphorylation assays from lysates of NB1 cells treated with ALK antibodies (FIG. 4B).

[8] = tested on: ALK (total protein levels in NB1 cells); assay: ALK turnover (total protein levels) by Western blot, 24 hour treatment of NB1 cells; type: cell-based, human; design: key: − none; + weak; ++ moderate; +++ strong
Description: FIG. 5 depicts a Western blot of a panel of ALK antibodies.
See also Table 18, below.

[9] = tested on: NB1 cells; assay: Crizotinib titration and co-titration with ALK antibodies, killing of NB1 cells; type: cell-based, human

| Molecule | Kd [1] [nM] | Kd [2] [nM] | potency estimated from few doses [2] [nM] | Kd [3] [nM] | potency estimated from few doses [4] [nM] | mouse ALK binding [5] | Bin/Domain (bin) [6] | effect on ALK activity (ALK inhibitory or ALK agonistic antibody) [7] | ALK phosphorylation [7] | ALK turnover [8] | effect on NB1 cell death caused by crizotinib ([9]; constant amount of antibody added to crizotinib titration) | effect on the anti-proliferative effect of crizotinib ([9]; co-titration of crizotinib with the antibody) |
| --- | --- | --- | --- | --- | --- | --- | --- | --- | --- | --- | --- | --- |
| Ab400: humanized anti-ALK antibody; VL SEQ ID NO: 425, VH SEQ ID NO: 430 (antibody, V domains shown, VH domain - Ab352; VL domain - Ab399) VH: EVQLVQSGPEVKKPGTSVKLSCKASGYTFTSYWMHWVRQARGQRLEWIGYIKPSSGYTKYNQKFKDRATLTADKSTSTAYMELSSLRSEDTAVYYCARDYYGSSSWFAYWGQGTLVTVSS VL: EIVMTQSQATMSTSVGERATLSCKASQNVGTNVAWYQQKPGQSPKALIYSASYRYSGVPARFSGSGSGTDFTLTISSVEPEDFAVYYCQQYNSYPYMYTFGQGTKLEIK | 1.3 | 81.5 | 59 | 7.4 | – | – | – | – | – | – | – | – |
| Ab403: humanized anti-ALK antibody; VL SEQ ID NO: 425, VH SEQ ID NO: 433 (antibody, V domains shown, VH domain - Ab355; VL domain - Ab399) VH: QVQLVQSGAEVAKPGASVKLSCKASGYTFTSYWMHWVKQAPGQGLEWIGYIKPSSGYTKYNQKFKDKATLTADKSTSTAYMELRSLRSDDTAVYYCARDYYGSSSWFAYWGQGTLVTVSS VL: EIVMTQSQATMSTSVGERATLSCKASQNVGTNVAWYQQKPGQSPKALIYSASYRYSGVPARFSGSGSGTDFTLTISSVEPEDFAVYYCQQYNSYPYMYTFGQGTKLEIK | 0.73 | 94.2 | 80 | 4.15 | 120 | – | – | – | – | – | – | – |
| Ab402: humanized anti-ALK antibody; VL SEQ ID NO: 425, VH SEQ ID NO: 432 (antibody, V domains shown, VH domain - Ab354; VL domain - Ab399) VH: EVQLVQSGAEVKKPGTSVKLSCKASGYTFTSYWMHWVRQARGQRLEWIGYIKPSSGYTKYAQKFQERVTLTADKSTSTAYMELSSLRSEDTAVYYCARDYYGSSSWFAYWGQGTLVTVSS VL: EIVMTQSQATMSTSVGERATLSCKASQNVGTNVAWYQQKPGQSPKALIYSASYRYSGVPARFSGSGSGTDFTLTISSVEPEDFAVYYCQQYNSYPYMYTFGQGTKLEIK | 1.5 | 87.6 | 71 | 2.8 | 147 | – | – | – | – | – | – | – |
| Ab323: anti-ALK monoclonal antibody; VL SEQ ID NO: 401, VH SEQ ID NO: 402 (antibody, V domains shown, VH domain - Ab323; VL domain - Ab323) VH: QVQLQQSGAELVKPGASVKISCKTSGYTFSNYWMNWVKQRPGKGLEWIGQIFPGDADANYNGKFKGKATLTADKSSSAAFMQLSSLTSEDSAVYFCARFSYDGAFAYWGQGTLVTVS VL: DIVMTQSHKFMSTSVGDRVSITCKASQDVSTAVAWYQQKPGQSPKPLIYWASTRHTGVPDRFTGSGSGTDYTLTISSVQTEDLALYYCQQHYSTPRTFGGGTKLEIKR | – | – | – | – | – | +++ | 1 | agonistic | weak agonist | ++ | partially rescued | – |
| Ab327: anti-ALK monoclonal antibody; VL SEQ ID NO: 409, VH SEQ ID NO: 410 (antibody, V domains shown, VH domain - Ab327; VL domain - Ab327) VH: DVKLVESGEGLVKPGGSLKLSCAASGFTFSSYAMSWVRQTPEKRLEWVTYISSGGDYIYYADTVKGRFTISRDNARNTLYLQMSSLKSEDTAMYYCTRERIWLRRFFDVWGTGTTVTVSS VL: DIVMTQSQKFMSTSVGDRVSITCKASQNVGTAVAWYQLKPGQSPKLLIYSASNRFTGVPDRFTGSGSGTDFTLTISNMQSEDLADYFCQQYSSYPLTFGSGTKLEIKR | – | – | – | – | – | +++ | 2 | inhibitory | inhibitor | ++ | – | enhanced |
